According to patent US20220062373A1 (published 2022):

T1: Endogenous murine CD206 on M2-polarized bone marrow-derived macrophages (mouse, UniProt Q61830 20-1456)
T1 construct: whole, on cells; also called endogenous CD206 in murine macrophages; CD206 of M2 BMDMs
T1 sequence (looked up): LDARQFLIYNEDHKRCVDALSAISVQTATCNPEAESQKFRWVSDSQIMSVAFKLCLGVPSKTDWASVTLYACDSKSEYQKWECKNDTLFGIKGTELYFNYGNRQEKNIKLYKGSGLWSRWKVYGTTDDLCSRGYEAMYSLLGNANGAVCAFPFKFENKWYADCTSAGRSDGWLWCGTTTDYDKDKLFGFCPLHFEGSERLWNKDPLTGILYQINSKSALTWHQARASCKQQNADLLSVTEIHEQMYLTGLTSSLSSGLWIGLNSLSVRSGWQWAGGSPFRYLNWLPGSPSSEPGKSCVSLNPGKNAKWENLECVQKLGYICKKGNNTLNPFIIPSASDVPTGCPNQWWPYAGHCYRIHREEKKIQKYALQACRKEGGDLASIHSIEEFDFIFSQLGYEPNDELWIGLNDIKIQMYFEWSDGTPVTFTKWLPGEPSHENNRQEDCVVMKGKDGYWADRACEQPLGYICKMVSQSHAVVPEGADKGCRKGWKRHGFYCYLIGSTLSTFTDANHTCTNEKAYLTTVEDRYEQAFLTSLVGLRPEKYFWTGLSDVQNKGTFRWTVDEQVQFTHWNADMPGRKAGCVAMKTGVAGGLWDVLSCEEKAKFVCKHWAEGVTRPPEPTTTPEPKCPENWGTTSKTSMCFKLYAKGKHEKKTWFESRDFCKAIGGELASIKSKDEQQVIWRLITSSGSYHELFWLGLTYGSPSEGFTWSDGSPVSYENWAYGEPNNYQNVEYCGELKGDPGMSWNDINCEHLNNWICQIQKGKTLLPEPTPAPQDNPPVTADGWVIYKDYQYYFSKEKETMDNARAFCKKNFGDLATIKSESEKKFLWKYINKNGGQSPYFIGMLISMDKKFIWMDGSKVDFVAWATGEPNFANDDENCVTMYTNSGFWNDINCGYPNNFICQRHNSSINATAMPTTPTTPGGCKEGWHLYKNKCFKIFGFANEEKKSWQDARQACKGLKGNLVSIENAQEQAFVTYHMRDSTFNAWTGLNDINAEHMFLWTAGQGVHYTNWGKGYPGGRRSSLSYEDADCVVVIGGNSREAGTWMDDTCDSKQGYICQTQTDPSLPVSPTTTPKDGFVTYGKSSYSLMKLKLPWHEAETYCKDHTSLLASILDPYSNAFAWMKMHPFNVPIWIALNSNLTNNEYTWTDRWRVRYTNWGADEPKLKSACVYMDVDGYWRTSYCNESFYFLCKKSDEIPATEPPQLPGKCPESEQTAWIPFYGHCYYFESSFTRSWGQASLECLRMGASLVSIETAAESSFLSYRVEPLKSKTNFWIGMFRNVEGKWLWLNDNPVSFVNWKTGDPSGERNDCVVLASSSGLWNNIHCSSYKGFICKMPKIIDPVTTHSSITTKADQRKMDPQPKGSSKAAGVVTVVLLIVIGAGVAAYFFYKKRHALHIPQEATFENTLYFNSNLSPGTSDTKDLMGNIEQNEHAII

B1: Recombinant human CD206 (MRC1/CD206) (receptor, UniProt P22897 19-1383, looked up)
chain: LLDTRQFLIYNEDHKRCVDAVSPSAVQTAACNQDAESQKFRWVSESQIMSVAFKLCLGVPSKTDWVAITLYACDSKSEFQKWECKNDTLLGIKGEDLFFNYGNRQEKNIMLYKGSGLWSRWKIYGTTDNLCSRGYEAMYTLLGNANGATCAFPFKFENKWYADCTSAGRSDGWLWCGTTTDYDTDKLFGYCPLKFEGSESLWNKDPLTSVSYQINSKSALTWHQARKSCQQQNAELLSITEIHEQTYLTGLTSSLTSGLWIGLNSLSFNSGWQWSDRSPFRYLNWLPGSPSAEPGKSCVSLNPGKNAKWENLECVQKLGYICKKGNTTLNSFVIPSESDVPTHCPSQWWPYAGHCYKIHRDEKKIQRDALTTCRKEGGDLTSIHTIEELDFIISQLGYEPNDELWIGLNDIKIQMYFEWSDGTPVTFTKWLRGEPSHENNRQEDCVVMKGKDGYWADRGCEWPLGYICKMKSRSQGPEIVEVEKGCRKGWKKHHFYCYMIGHTLSTFAEANQTCNNENAYLTTIEDRYEQAFLTSFVGLRPEKYFWTGLSDIQTKGTFQWTIEEEVRFTHWNSDMPGRKPGCVAMRTGIAGGLWDVLKCDEKAKFVCKHWAEGVTHPPKPTTTPEPKCPEDWGASSRTSLCFKLYAKGKHEKKTWFESRDFCRALGGDLASINNKEEQQTIWRLITASGSYHKLFWLGLTYGSPSEGFTWSDGSPVSYENWAYGEPNNYQNVEYCGELKGDPTMSWNDINCEHLNNWICQIQKGQTPKPEPTPAPQDNPPVTEDGWVIYKDYQYYFSKEKETMDNARAFCKRNFGDLVSIQSESEKKFLWKYVNRNDAQSAYFIGLLISLDKKFAWMDGSKVDYVSWATGEPNFANEDENCVTMYSNSGFWNDINCGYPNAFICQRHNSSINATTVMPTMPSVPSGCKEGWNFYSNKCFKIFGFMEEERKNWQEARKACIGFGGNLVSIQNEKEQAFLTYHMKDSTFSAWTGLNDVNSEHTFLWTDGRGVHYTNWGKGYPGGRRSSLSYEDADCVVIIGGASNEAGKWMDDTCDSKRGYICQTRSDPSLTNPPATIQTDGFVKYGKSSYSLMRQKFQWHEAETYCKLHNSLIASILDPYSNAFAWLQMETSNERVWIALNSNLTDNQYTWTDKWRVRYTNWAADEPKLKSACVYLDLDGYWKTAHCNESFYFLCKRSDEIPATEPPQLPGRCPESDHTAWIPFHGHCYYIESSYTRNWGQASLECLRMGSSLVSIESAAESSFLSYRVEPLKSKTNFWIGLFRNVEGTWLWINNSPVSFVNWNTGDPSGERNDCVALHASSGFWSNIHCSSYKGYICKRPKIIDAKPTHELLTTKADTRKMDPSK
notes: Bought protein; also called recombinant MRC1/CD206; rMRC1/CD206
B2: RP-426 (peptide)
peptide: KARKAAKRAF
notes: Designed as a control to test the impact of hydrophobicity on activity

Legend:
[1] = biological target: the molecule itself; test: small-angle X-ray scattering (SAXS), self-association
Protocol: SAXS data was collected at the 12ID-B beamline of the Advanced Photon Source (APS), Argonne National Laboratory, Lemont, Ill. […] Concentration series measurements for CD206 in buffer containing 50 mM Hepes, 100 mM NaCl, 1 mM DTT were carried out to extrapolate the data to infinite dilution for removing the scattering contribution due to interparticle interactions (concentration effect). Thirty 2D-image frames were recorded for sample solution and their matching buffer using a flow cell, with the exposure time of 0.75-1 sec to minimize radiation damage and to yield optimal signal-to-noise ratio. The 2D images were reduced to 1D scattering profiles and averaged using the Matlab software package at the beamlines.
The buffer background subtraction and intensity extrapolation to infinite dilution were carried out using MatLab script developed by 12-ID-B beamline. The radius of gyration (Rg) was generated from Guinier plot in the range of qRg<1.3. For comparison, Rg was also calculated in real and reciprocal spaces using program GNOM (https://www.embl-hamburg.de/biosaxs/manuals/gnom.html). The pair-distance distribution function P(r) and maximum dimension (Dmax) were also calculated using GNOM. […] Based on the silico models of CD206 monomer derived from iTASSER, the fit of dimer of CD206 to SAXS experimental data were calculated using the program CORAL.

[2] = biological target: T1, Endogenous murine CD206 on M2-polarized …; test: cellular thermal shift assay (CETSA) on M2-polarized macrophages
Protocol: The target engagement of the peptides in macrophages was assessed using the cellular thermal shift assay (CETSA) following the Jafari et al. protocol with minor modifications. […] After treatment, cells were collected by centrifugation for 5 min at 300×g and re-suspended in 600 μL DMEM. […] Samples were centrifuged at 20,000×g for 20 min at 4° C., and the supernatant was subsequently analyzed by western blot using 12-230 kDa Peggy Sue separation module (ProteinSimple, Cat #, SM-S001) and Peggy Sue instrument (Protein Simple) with following settings: electrophoresis 250 volts for 45 min; blocking, 23 min; primary antibody, 30 min; secondary antibody, 30 min. Quantitative analysis of CD206 level was performed using anti-CD206 antibody at 1:70 concentration multiplexed with anti-SOD1 antibody at 1:300 dilution, as internal control for normalization, and Compass software (ProteinSimple, San Jose, Calif.).

[3] = biological target: B1; test: microscale thermophoresis, label-free, recombinant CD206
Protocol: Specifically, two-fold serial dilutions of the peptides were prepared in PBS and incubated with the same volume of 250 nM recombinant human and mouse CD206 in PBS. After a 5 min incubation at room temperature (RT), measurements were carried out in standard capillaries using a Monolith NT. Labelfree instrument (Nanotemper Technologies) with 40% LED excitation power, 40% IR-laser power, and laser on and off times of 30 s and 5 s, respectively. KD values were calculated by fitting the T-Jump signal of the thermograph using MOAffinity analysis software (Nanotemper Technologies).

binding result [2] | Kd [3] [µM] | Binder | binding result [1]
– | – | B1 | binds
no binding (tested: 100 µM) | 85 | B2 | –
